According to US20230212319A1, “NOVEL ANTIGEN BINDING DOMAINS AND SYNTHETIC ANTIGEN RECEPTORS INCORPORATING THE SAME” (University of Southern California, priority 2020, published 2023):

Test system: RAJI cells
Assay: JNG assay, co-culture with RAJI cells
Assay type: cell-based
Details: JNG cells expressing construct, co-culture with Raji
Procedure: Cellular supernatant is collected and assayed for the induction of cytokines (e.g., IL2).
JNG (Jurkat cells expressing EGFP under an NFAT promoter) were infected with lentiviral vectors encoding different single chain and multi-chain SARs by spinfection in the presence of 8 µg/ml of Polybrene® (Sigma, Catalog no. H9268). The Jurkat-NFAT-GFP cells are engineered in such a way that the IL-2 promoter, which carries NFAT binding sites, is cloned upstream of the GFP gene. These cells have been used to study signaling via TCR and CAR. The different SARs were stably expressed in Jurkat NFAT-GFP cells by lentiviral mediated gene transfer, followed by selection with puromycin or blasticidin. No drug selection was used in case the construct lacked an antibiotic resistance gene. The SAR-expressing Jurkat-NFAT-GFP cells were cocultured with the target cells at E:T ratio of approximately 1:2 for approximately 4 hours to 18 hours. When the interaction between SIRs and their target antigen results in activation of the NFAT pathway, GFP expression is induced. […] GFP expression was monitored by FACS analysis. The Jurkat-NFAT-GFP (parental) cells were used as control. The structure of different constructs can be determined based on their names. […] The sequence of the other constructs in the table can be similarly determined from their names and by referring to the different Tables of this disclosure that provide the names and SEQ ID NO of the different modules. Alternatively, the composition and modular architecture of the different SAR constructs can be determined from their sequences by bioinformatics tools, including using nucleic acid and amino acids homology searches. A SAR is considered positive in the assay in case the SAR expressing Jurkat-NFAT-GFP cells show greater % GFP positive cells when cultured with the target cell line as compared to parental Jurkat-NFAT-GFP cells. […] In general, the number +/-, +, 2+, 3+, 4+, 5+ refer to approximately 5%, 10%, 20%, 30%, 40% and 50% GFP positive cells. The % of GFP induction in the above assay is dependent not only the relative strength of the SAR but also, among other factors, on the relative level of expression of the SAR in the JNG cells and the relative level of expression of the target antigen in the target cell line. To control for the difference in gene transduction efficiency of the different SAR constructs, the experiment was conducted with JNG cells transduced with SAR constructs co-expressing a drug resistance gene (e.g., puromycin or PAC) followed by drug selection to generate a stable population of SAR-expressing cells. It is to be noted that the drug resistance gene (e.g., PAC) in the SAR constructs is optional and in vivo studies were conducted with SAR constructs lacking the PAC gene.

| Molecule | NFAT-GFP ASSAY: Raji |
| --- | --- |
| 22001 (protein) MALPVTALLLPLALLLHAARPQLQLQESGPGLVKPSETLSLTCTVSGDSISSGDYYWGWIRQPPGKGLEWIGHIYYSGVTYYNPSLKSRVTISVDTSRNQFSLKLSSVTAADTAVYYCTREDSSNWRSRGQGTLVTVSSLEPGGGGSPEDLKNVFPPEVAVFEPSEAEISHTQKATLVCLATGFYPDHVELSWWVNGKEVHSGVCTDPQPLKEQPALNDSRYCLSSRLRVSATFWQNPRNHFRCQVQFYGLSENDEWTQDRAKPVTQIVSAEAWGRADCGFTSESYQQGVLSATILYEILLGKATLYAVLVSALVLMAMVKRKDSRGRAKRSGSGATNFSLLKQAGDVEENPGPTSMDWIWRILFLVGAATGAHSFEVQLLESGGGLIQPGGSLRLSCAASGFTFSSHAMTWVRQAPGKGLEWVSAISGSGDYTHYADSVKGRFTISRDNSKNTVYLQMNSLRAEDSAVYYCAKDEDGGSLLGHRGQGTLVTVSSTRIQNPDPAVYQLRDSKSSDKSVCLFTDFDSQTNVSQSKDSDVYITDKCVLDMRSMDFKSNSAVAWSNKSDFACANAFNNSIIPEDTFFPSPESSCDVKLVEKSFETDTNLNFQNLSVIGFRILLLKVAGFNLLMTLRLWSSRAKRSGSGVKQTLNFDLLKLAGDVESNPGPSRGHMTEYKPTVRLATRDDVPRAVRTLAAAFADYPATRHTVDPDRHIERVTELQELFLTRVGLDIGKVWVADDGAAVAVWTTPESVEAGAVFAEIGPRMAELSGSRLAAQQQMEGLLAPHRPKEPAWFLATVGVSPDHQGKGLGSAVVLPGVEAAERAGVPAFLETSAPRNLPFYERLGFTVTADVEVPEGPRTWCMTRKPGA | +/- (refer to approximately 5%, 10%, 20%, 30%, 40% and 50% GFP positive cells) |
| 21993 (protein) MALPVTALLLPLALLLHAARPQLQLQESGPGLVKPSETLSLTCTVSGDSISSGDYYWGWIRQPPGKGLEWIGHIYYSGVTYYNPSLKSRVTISVDTSRNQFSLKLSSVTAADTAVYYCTREDSSNWRSRGQGTLVTVSSLEDLKNVFPPEVAVFEPSEAEISHTQKATLVCLATGFYPDHVELSWWVNGKEVHSGVCTDPQPLKEQPALNDSRYCLSSRLRVSATFWQNPRNHFRCQVQFYGLSENDEWTQDRAKPVTQIVSAEAWGRADCGFTSESYQQGVLSATILYEILLGKATLYAVLVSALVLMAMVKRKDSRGRAKRSGSGATNFSLLKQAGDVEENPGPTSMDWIWRILFLVGAATGAHSFEQLQLQESGPGLVKPSETLSLTCTVSGGSISSGDYYWGWIRQPPGKGLEWIGHIYYSGATYYNPSLKSRVTISVDTSRNQFSLKLSSVTAADTAVYYCTRDDSSNWRSRGQGTLVTVSSTRIQNPDPAVYQLRDSKSSDKSVCLFTDFDSQTNVSQSKDSDVYITDKCVLDMRSMDFKSNSAVAWSNKSDFACANAFNNSIIPEDTFFPSPESSCDVKLVEKSFETDTNLNFQNLSVIGFRILLLKVAGFNLLMTLRLWSSRAKRSGSGVKQTLNFDLLKLAGDVESNPGPSRGHMTEYKPTVRLATRDDVPRAVRTLAAAFADYPATRHTVDPDRHIERVTELQELFLTRVGLDIGKVWVADDGAAVAVWTTPESVEAGAVFAEIGPRMAELSGSRLAAQQQMEGLLAPHRPKEPAWFLATVGVSPDHQGKGLGSAVVLPGVEAAERAGVPAFLETSAPRNLPFYERLGFTVTADVEVPEGPRTWCMTRKPGA | Raji (+/-) (refer to approximately 5%, 10%, 20%, 30%, 40% and 50% GFP positive cells) |
| 21995 (protein) MALPVTALLLPLALLLHAARPQLQLQESGPGLVKPSETLSLTCTVSGDSISSGDYYWGWIRQPPGKGLEWIGHIYYSGVTYYNPSLKSRVTISVDTSRNQFSLKLSSVTAADTAVYYCTREDSSNWRSRGQGTLVTVSSLEDLKNVFPPEVAVFEPSEAEISHTQKATLVCLATGFYPDHVELSWWVNGKEVHSGVCTDPQPLKEQPALNDSRYCLSSRLRVSATFWQNPRNHFRCQVQFYGLSENDEWTQDRAKPVTQIVSAEAWGRADCGFTSESYQQGVLSATILYEILLGKATLYAVLVSALVLMAMVKRKDSRGRAKRSGSGATNFSLLKQAGDVEENPGPTSMDWIWRILFLVGAATGAHSFEVQLLESGGGLVQPGGSLRLSCAASGFIFSIYAMSWVRQAPGKGLEWVSGISGSGVNTYYADSVKGRFIISRDNSRNTVYLQMNSLRADDTAVYHCANGKGWDGNTWYEDYRGQGTLVTVSSTRIQNPDPAVYQLRDSKSSDKSVCLFTDFDSQTNVSQSKDSDVYITDKCVLDMRSMDFKSNSAVAWSNKSDFACANAFNNSIIPEDTFFPSPESSCDVKLVEKSFETDTNLNFQNLSVIGFRILLLKVAGFNLLMTLRLWSSRAKRSGSGVKQTLNFDLLKLAGDVESNPGPSRGHMTEYKPTVRLATRDDVPRAVRTLAAAFADYPATRHTVDPDRHIERVTELQELFLTRVGLDIGKVWVADDGAAVAVWTTPESVEAGAVFAEIGPRMAELSGSRLAAQQQMEGLLAPHRPKEPAWFLATVGVSPDHQGKGLGSAVVLPGVEAAERAGVPAFLETSAPRNLPFYERLGFTVTADVEVPEGPRTWCMTRKPGA | + (refer to approximately 5%, 10%, 20%, 30%, 40% and 50% GFP positive cells) |
| 22085 (protein) MALPVTALLLPLALLLHAARPQLQLQESGPGLVKPSETLSLTCTVSGDSISSGDYYWGWIRQPPGKGLEWIGHIYYSGVTYYNPSLKSRVTISVDTSRNQFSLKLSSVTAADTAVYYCTREDSSNWRSRGQGTLVTVSSLEGSGGGGSGGGGSGEDLKNVFPPEVAVFEPSEAEISHTQKATLVCLATGFYPDHVELSWWVNGKEVHSGVCTDPQPLKEQPALNDSRYCLSSRLRVSATFWQNPRNHFRCQVQFYGLSENDEWTQDRAKPVTQIVSAEAWGRADCGFTSESYQQGVLSATILYEILLGKATLYAVLVSALVLMAMVKRKDSRGRAKRSGSGATNFSLLKQAGDVEENPGPTSMDWIWRILFLVGAATGAHSFEVQLLESGGGLIQPGGSLRLSCAASGFTFSSHAMTWVRQAPGKGLEWVSAISGSGDYTHYADSVKGRFTISRDNSKNTVYLQMNSLRAEDSAVYYCAKDEDGGSLLGHRGQGTLVTVSSTRGSIPEDTFFPSPESSCDVKLVEKSFETDTNLNFQNLSVIGFRILLLKVAGFNLLMTLRLWSS | +/- (refer to approximately 5%, 10%, 20%, 30%, 40% and 50% GFP positive cells) |
| 22084 (protein) MALPVTALLLPLALLLHAARPQLQLQESGPGLVKPSETLSLTCTVSGDSISSGDYYWGWIRQPPGKGLEWIGHIYYSGVTYYNPSLKSRVTISVDTSRNQFSLKLSSVTAADTAVYYCTREDSSNWRSRGQGTLVTVSSLDSGGGGSFEQLQLQESGPGLVKPSETLSLTCTVSGGSISSGDYYWGWIRQPPGKGLEWIGHIYYSGATYYNPSLKSRVTISVDTSRNQFSLKLSSVTAADTAVYYCTRDDSSNWRSRGQGTLVTVSSTRDKTHTCPPCPAIPEDTFFPSPESSCDVKLVEKSFETDTNLNFQNLSVIGFRILLLKVAGFNLLMTLRLWSS | +/- (refer to approximately 5%, 10%, 20%, 30%, 40% and 50% GFP positive cells) |

Same assay, conditions: co-culture with RAJI cells

| Molecule | GFP induction / activity |
| --- | --- |
| SEQ ID NO: 22254: bispecific SAR on CD19 targeted SIR backbone comprising the receptor binding domain of the ligand APRIL (protein) MALPVTALLLPLALLLHAARPACVLHLVPINATSKDDSDVTEVMWQPALRRGRGLQAQGYGVRIQDAGVYLLYSQVLFQDVTFTMGQVVSREGQGRQETLFRCIRSMPSHPDRAYNSCYSAGVFHLHQGDILSVIIPRARAKLNLSPHGTFLGFVKLGTGGGGSGGGGSGGGGSEFDIQMTQSPSSLSASVGDRVTITCKASDHINNWLAWYQQKPGQAPKLLIYGATTLETGVPSRFSGSGSGTDYTLTISSLQPEDFATYYCQQSWNTPWTFGQGTKLEIKRLEDLKNVFPPEVAVFEPSEAEISHTQKATLVCLATGFYPDHVELSWWVNGKEVHSGVCTDPQPLKEQPALNDSRYCLSSRLRVSATFWQNPRNHFRCQVQFYGLSENDEWTQDRAKPVTQIVSAEAWGRADCGFTSESYQQGVLSATILYEILLGKATLYAVLVSALVLMAMVKRKDSRGRAKRSGSGATNFSLLKQAGDVEENPGPTSATMDWIWRILFLVGAATGAHSGPEVQLVESGGGLVQAGGSLRLSCAASGRTFSMGWFRQAPGKEREFVAAITYSGGSPYYADSVKGRFTISRDNAKNTVYLQMNSLKPEDTAVYYCAANPTYGSDWNAENWGQGTQVTVSSGSGGGGSGGGGSGGGGSFEQVQLQQPGAELVKPGASVKMSCKASGYAFSSYWINWMKQKPGQGLEWIGQIYPGDGDTNYNGKFKGRATLTADTSSSTAYMQLSSLTSEDSAVYFCARSITTVVGCAMDYWGQGTSVTVSSTRIQNPDPAVYQLRDSKSSDKSVCLFTDFDSQTNVSQSKDSDVYITDKCVLDMRSMDFKSNSAVAWSNKSDFACANAFNNSIIPEDTFFPSPESSCDVKLVEKSFETDTNLNFQNLSVIGFRILLLKVAGFNLLMTLRLWSSRAKRSGSGVKQTLNFDLLKLAGDVESNPGPSRGHMTEYKPTVRLATRDDVPRAVRTLAAAFADYPATRHTVDPDRHIERVTELQELFLTRVGLDIGKVWVADDGAAVAVWTTPESVEAGAVFAEIGPRMAELSGSRLAAQQQMEGLLAPHRPKEPAWFLATVGVSPDHQGKGLGSAVVLPGVEAAERAGVPAFLETSAPRNLPFYERLGFTVTADVEVPEGPRTWCMTRKPGA | retained the ability to respond |
